Numbered stars: 1 amine (or outer) side, 2 acyl side, 3 side chain; on linkers, the order of the positions; unused ones are H or OH. Bridge positions count the residues as written; N and C are the ends. Ends that are not written are not given here. Phenylene(1,4-NHCOCH2)2 = O=C(C[*:1])Nc1ccc(NC(=O)C[*:2])cc1
What was measured:
WWP2^HECT = target: T1, WWP2^HECT (Homo sapiens, UniProt O00308); experiment: Naive Library Presenter Screening (phage, NGS), WWP2^HECT; format: binding; conditions: for interaction data at Target Concentration 10: WWP2 target concentration 10 nM; for interaction data at Target Concentration 30: WWP2 target concentration 30 nM; for interaction data at Target Concentration 100: WWP2 target concentration 100 nM; for interaction data at Target Concentration 300: WWP2 target concentration 300 nM; for interaction data at Target Concentration 1000: WWP2 target concentration 1000 nM
T1 construct: GST-TEV (N, cleaved yes); made in house; host or cells: Escherichia coli BL21 (DE3)
T1 sequence (O00308 492-865): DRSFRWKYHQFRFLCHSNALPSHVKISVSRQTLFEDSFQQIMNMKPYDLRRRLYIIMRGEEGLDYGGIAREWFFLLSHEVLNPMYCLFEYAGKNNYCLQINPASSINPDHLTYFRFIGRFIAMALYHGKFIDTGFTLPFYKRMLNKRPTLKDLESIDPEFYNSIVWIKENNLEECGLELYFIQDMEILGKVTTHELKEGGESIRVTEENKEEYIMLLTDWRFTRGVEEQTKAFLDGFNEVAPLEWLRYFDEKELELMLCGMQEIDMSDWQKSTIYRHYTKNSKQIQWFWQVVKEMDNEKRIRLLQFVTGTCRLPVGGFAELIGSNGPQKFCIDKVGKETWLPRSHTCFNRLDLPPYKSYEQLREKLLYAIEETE

CDK2 = CDK2 (Homo sapiens, UniProt P24941); experiment: Phage Library Screening with NGS, CDK2; format: binding; parameters: Full length CDK2 (residues 1-298) with an N-terminal GST-3C-6×his-TEV tag; GST-3C-6×his-TEV (N, cleaved yes); made in house; host or cells: Sf9 (Bac-to-Bac baculovirus); conditions: for phage screen counts, Target Concentration 10: CDK2, target concentration 10; for phage screen counts, Target Concentration 30: CDK2, target concentration 30; for phage screen counts, Target Concentration 100: CDK2, target concentration 100; for phage screen counts, Target Concentration 300: CDK2, target concentration 300
[1] = CDK2, target concentration 1000, first column
[2] = CDK2, target concentration 1000, second column

interaction data at Target Concentration 10 (WWP2^HECT)	interaction data at Target Concentration 30 (WWP2^HECT)	interaction data at Target Concentration 100 (WWP2^HECT)	interaction data at Target Concentration 300 (WWP2^HECT)	interaction data at Target Concentration 1000 (WWP2^HECT; first column)	interaction data at Target Concentration 1000 (WWP2^HECT; second column)	phage screen counts, Target Concentration 10 (CDK2)	phage screen counts, Target Concentration 30 (CDK2)	phage screen counts, Target Concentration 100 (CDK2)	phage screen counts, Target Concentration 300 (CDK2)	phage screen counts, Target Concentration 1000 (CDK2; [1])	phage screen counts, Target Concentration 1000 (CDK2; [2])	Sequence
37	57	70	94	78	123	–	–	–	–	–	–	DPATYYCEAAAETCRFF (linker 7-14 via Phenylene(1,4-NHCOCH2)2 (inferred); not fully specified (C-terminus))
0	179	254	297	283	378	–	–	–	–	–	–	DPAANYCEAAADTCQFF (linker 7-14 via Phenylene(1,4-NHCOCH2)2 (inferred))
–	–	–	–	–	–	0	0	8	46	206	115	DPAWYACIVAAVDCEHS (linker 7-14 via Phenylene(1,4-NHCOCH2)2 (inferred))
–	–	–	–	–	–	0	0	0	4	7	408	CLDAFFACER (linker 1-8 via Phenylene(1,4-NHCOCH2)2 (inferred); not fully specified (C-terminus))
–	–	–	–	–	–	0	0	51	193	195	102	DPAWWTCIIAALECEEQ (linker 7-14 via Phenylene(1,4-NHCOCH2)2 (inferred))
–	–	–	–	–	–	0	1	0	14	722	485	PSCLSAFFSCY (linker 3-10 via Phenylene(1,4-NHCOCH2)2 (inferred))
–	–	–	–	–	–	0	0	73	973	909	998	DPAWWMCTIAAIECETT (linker 7-14 via Phenylene(1,4-NHCOCH2)2 (inferred))
–	–	–	–	–	–	0	0	1	0	39	8	PCMDAFFSCVW (linker 2-9 via Phenylene(1,4-NHCOCH2)2 (inferred))
–	–	–	–	–	–	0	0	0	1	212	44	PFECLSAFFSC (linker 4-11 via Phenylene(1,4-NHCOCH2)2 (inferred))
–	–	–	–	–	–	0	0	1	17	320	16	MACVDAFFSC (linker 3-10 via Phenylene(1,4-NHCOCH2)2 (inferred))
–	–	–	–	–	–	0	1	9	9	422	142	PECLVAFFSCV (linker 3-10 via Phenylene(1,4-NHCOCH2)2 (inferred))
–	–	–	–	–	–	0	0	0	61	314	257	PCLEAFFSCVY (linker 2-9 via Phenylene(1,4-NHCOCH2)2 (inferred))
–	–	–	–	–	–	0	18	25	216	195	358	DPAWWHCSIAALECHTT (linker 7-14 via Phenylene(1,4-NHCOCH2)2 (inferred))
–	–	–	–	–	–	29	0	0	0	111	330	CLSAFFSCTY (linker 1-8 via Phenylene(1,4-NHCOCH2)2 (inferred); not fully specified (C-terminus))
–	–	–	–	–	–	0	0	13	39	119	102	DPAWWRCSIAAMECHHD (linker 7-14 via Phenylene(1,4-NHCOCH2)2 (inferred))
–	–	–	–	–	–	0	10	3	93	65	230	DPAWWRCSVAAIDCHWN (linker 7-14 via Phenylene(1,4-NHCOCH2)2 (inferred))
–	–	–	–	–	–	0	0	10	69	119	243	DPAWWTCSVAAIQCWDS (linker 7-14 via Phenylene(1,4-NHCOCH2)2 (inferred))
–	–	–	–	–	–	0	0	0	0	90	50	CLSAFFMCSS (linker 1-8 via Phenylene(1,4-NHCOCH2)2 (inferred); not fully specified (C-terminus))
–	–	–	–	–	–	0	0	0	57	452	284	ECLSAFFTCV (linker 2-9 via Phenylene(1,4-NHCOCH2)2 (inferred))
–	–	–	–	–	–	0	9	0	84	344	328	PECLEAFFDCR (linker 3-10 via Phenylene(1,4-NHCOCH2)2 (inferred))

Source: patent US20240376151A1, “STAPLED PEPTIDES AND METHODS THEREOF” (FOG PHARMACEUTICALS, INC., priority 2022, published 2024)
